Assay results published in the supplement of paper PMC9112550, “Optimization of the antimicrobial peptide Bac7 by deep mutational scanning” (BMC Biology, 2022).

System: Escherichia coli TOP10
Assay: shrunken log2 fold change of peptide-encoding DNA abundance (4.5 h post-induction vs induction); higher = less antimicrobial activity (less host growth inhibition)
Conditions: time post-induction: 4.5 h; library: site-saturation at positions 5, 18, 19, 20
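Note: peptides expressed intracellularly from a pBAD plasmid library in pooled LB shake-flask culture, induced with 0.3% L-arabinose, DNA abundance read by NGS, three biological replicates, DESeq2 with apeglm shrinkage.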

| Sequence | shrunken log2 fold change |
| --- | --- |
| RRIRFRPPRLPRPRPRPYDFPRP | -0.0848 |
| RRIRFRPPRLPRPRPRPYDLPRP | -1.02 |
| RRIRFRPPRLPRPRPRPYEKPRP | -0.075 |
| RRIRFRPPRLPRPRPRPYENPRP | -0.463 |
| RRIRFRPPRLPRPRPRPYGNPRP | -0.527 |
| RRIRFRPPRLPRPRPRPYHAPRP | -0.0961 |
| RRIRFRPPRLPRPRPRPYKGPRP | -0.631 |
| RRIRFRPPRLPRPRPRPYKWPRP | -0.298 |
| RRIRFRPPRLPRPRPRPYLDPRP | -0.26 |
| RRIRFRPPRLPRPRPRPYLIPRP | -0.417 |
| RRIRFRPPRLPRPRPRPYLQPRP | -0.527 |
| RRIRFRPPRLPRPRPRPYMFPRP | -1.11 |
| RRIRFRPPRLPRPRPRPYNCPRP | -0.768 |
| RRIRFRPPRLPRPRPRPYPVPRP | -0.115 |
| RRIRFRPPRLPRPRPRPYRFPRP | -0.243 |
| RRIRFRPPRLPRPRPRPYSVPRP | 0.062 |
| RRIRFRPPRLPRPRPRPYTKPRP | -0.573 |
| RRIRFRPPRLPRPRPRPYVDPRP | -0.00112 |
| RRIRFRPPRLPRPRPRPYVGPRP | -0.108 |
| RRIRFRPPRLPRPRPRPYVQPRP | -0.0133 |
| RRIRFRPPRLPRPRPRPYWDPRP | -2.48 |
| RRIRFRPPRLPRPRPRPYYHPRP | -0.146 |
| RRIRGRPPRLPRPRPRPAACPRP | 1.15 |
| RRIRGRPPRLPRPRPRPAATPRP | 3.06 |
| RRIRGRPPRLPRPRPRPACDPRP | 0.964 |

| Sequence | shrunken log2 fold change |
| --- | --- |
| RRIRGRPPRLPRPRPRPACTPRP | 1.17 |
| RRIRGRPPRLPRPRPRPADCPRP | 0.349 |
| RRIRGRPPRLPRPRPRPADPPRP | 0.585 |
| RRIRGRPPRLPRPRPRPAEDPRP | 0.0402 |
| RRIRGRPPRLPRPRPRPAEFPRP | 0.69 |
| RRIRGRPPRLPRPRPRPAENPRP | 0.996 |
| RRIRGRPPRLPRPRPRPAFAPRP | 0.89 |
| RRIRGRPPRLPRPRPRPAGGPRP | 0.714 |
| RRIRGRPPRLPRPRPRPAGSPRP | 1.06 |
| RRIRGRPPRLPRPRPRPAHLPRP | 0.768 |
| RRIRGRPPRLPRPRPRPAICPRP | 0.555 |
| RRIRGRPPRLPRPRPRPAIKPRP | 0.534 |
| RRIRGRPPRLPRPRPRPAIQPRP | 0.438 |
| RRIRGRPPRLPRPRPRPALKPRP | 0.504 |
| RRIRGRPPRLPRPRPRPALRPRP | 0.991 |
| RRIRGRPPRLPRPRPRPALYPRP | 0.363 |
| RRIRGRPPRLPRPRPRPAMVPRP | 0.252 |
| RRIRGRPPRLPRPRPRPANIPRP | -0.0276 |
| RRIRGRPPRLPRPRPRPAPNPRP | 0.829 |
| RRIRGRPPRLPRPRPRPAPPPRP | 1.07 |
| RRIRGRPPRLPRPRPRPAPYPRP | 0.218 |
| RRIRGRPPRLPRPRPRPAQDPRP | 0.836 |
| RRIRGRPPRLPRPRPRPAQKPRP | 0.721 |
| RRIRGRPPRLPRPRPRPAQMPRP | 0.305 |
| RRIRGRPPRLPRPRPRPAQRPRP | 0.858 |

| Sequence | shrunken log2 fold change |
| --- | --- |
| RRIRGRPPRLPRPRPRPARTPRP | 0.545 |
| RRIRGRPPRLPRPRPRPASWPRP | 2.63 |
| RRIRGRPPRLPRPRPRPATEPRP | 0.976 |
| RRIRGRPPRLPRPRPRPAVHPRP | 0.536 |
| RRIRGRPPRLPRPRPRPAYKPRP | -0.202 |
| RRIRGRPPRLPRPRPRPAYVPRP | -0.0723 |
| RRIRGRPPRLPRPRPRPCAAPRP | 1.89 |
| RRIRGRPPRLPRPRPRPCDPPRP | 0.228 |
| RRIRGRPPRLPRPRPRPCDTPRP | 0.13 |
| RRIRGRPPRLPRPRPRPCDWPRP | 0.519 |
| RRIRGRPPRLPRPRPRPCGGPRP | 0.472 |
| RRIRGRPPRLPRPRPRPCGVPRP | 0.578 |
| RRIRGRPPRLPRPRPRPCKIPRP | -0.189 |
| RRIRGRPPRLPRPRPRPCLHPRP | 0.331 |
| RRIRGRPPRLPRPRPRPCLPPRP | -0.0995 |
| RRIRGRPPRLPRPRPRPCMHPRP | 0.363 |
| RRIRGRPPRLPRPRPRPCMKPRP | 0.507 |
| RRIRGRPPRLPRPRPRPCNAPRP | 1.45 |
| RRIRGRPPRLPRPRPRPCNSPRP | -0.0377 |
| RRIRGRPPRLPRPRPRPCNVPRP | -0.037 |
| RRIRGRPPRLPRPRPRPCPMPRP | 1.17 |
| RRIRGRPPRLPRPRPRPCPTPRP | 0.0246 |
| RRIRGRPPRLPRPRPRPCQAPRP | -0.0272 |
| RRIRGRPPRLPRPRPRPCQFPRP | 0.33 |
| RRIRGRPPRLPRPRPRPCQGPRP | 0.242 |

| Sequence | shrunken log2 fold change |
| --- | --- |
| RRIRGRPPRLPRPRPRPCQWPRP | 0.0251 |
| RRIRGRPPRLPRPRPRPCREPRP | -0.368 |
| RRIRGRPPRLPRPRPRPCRKPRP | -0.079 |
| RRIRGRPPRLPRPRPRPCRVPRP | -0.0297 |
| RRIRGRPPRLPRPRPRPCSYPRP | 0.089 |
| RRIRGRPPRLPRPRPRPCTDPRP | 0.522 |
| RRIRGRPPRLPRPRPRPCTIPRP | 0.166 |
| RRIRGRPPRLPRPRPRPCTQPRP | 0.196 |
| RRIRGRPPRLPRPRPRPCVSPRP | 0.265 |
| RRIRGRPPRLPRPRPRPCWHPRP | 0.357 |
| RRIRGRPPRLPRPRPRPCWQPRP | 0.153 |
| RRIRGRPPRLPRPRPRPCWSPRP | 0.144 |
| RRIRGRPPRLPRPRPRPCYNPRP | 0.0333 |
| RRIRGRPPRLPRPRPRPDACPRP | 1.23 |
| RRIRGRPPRLPRPRPRPDAFPRP | 1.87 |
| RRIRGRPPRLPRPRPRPDAQPRP | 2.38 |
| RRIRGRPPRLPRPRPRPDDEPRP | 1.27 |
| RRIRGRPPRLPRPRPRPDDHPRP | 0.18 |
| RRIRGRPPRLPRPRPRPDEQPRP | -0.0342 |
| RRIRGRPPRLPRPRPRPDFDPRP | 0.612 |
| RRIRGRPPRLPRPRPRPDFQPRP | 1.01 |
| RRIRGRPPRLPRPRPRPDGDPRP | 0.265 |
| RRIRGRPPRLPRPRPRPDIQPRP | 1.9 |
| RRIRGRPPRLPRPRPRPDISPRP | -0.0115 |
| RRIRGRPPRLPRPRPRPDIVPRP | 0.192 |

| Sequence | shrunken log2 fold change |
| --- | --- |
| RRIRGRPPRLPRPRPRPDKPPRP | 0.415 |
| RRIRGRPPRLPRPRPRPDMSPRP | 0.0457 |
| RRIRGRPPRLPRPRPRPDMYPRP | 0.0675 |
| RRIRGRPPRLPRPRPRPDNPPRP | 0.0274 |
| RRIRGRPPRLPRPRPRPDNVPRP | -0.011 |
| RRIRGRPPRLPRPRPRPDQGPRP | 0.347 |
| RRIRGRPPRLPRPRPRPDRFPRP | 0.375 |
| RRIRGRPPRLPRPRPRPDRLPRP | -0.00118 |
| RRIRGRPPRLPRPRPRPDRMPRP | -0.107 |
| RRIRGRPPRLPRPRPRPDRWPRP | 0.703 |
| RRIRGRPPRLPRPRPRPDSIPRP | 0.495 |
| RRIRGRPPRLPRPRPRPDSKPRP | 0.125 |
| RRIRGRPPRLPRPRPRPDTVPRP | -0.116 |
| RRIRGRPPRLPRPRPRPDWMPRP | 0.235 |
| RRIRGRPPRLPRPRPRPDWWPRP | 0.937 |
| RRIRGRPPRLPRPRPRPEAEPRP | 2.74 |
| RRIRGRPPRLPRPRPRPEATPRP | 2.21 |
| RRIRGRPPRLPRPRPRPECAPRP | 2.14 |
| RRIRGRPPRLPRPRPRPECNPRP | 1.95 |
| RRIRGRPPRLPRPRPRPEFGPRP | 0.797 |
| RRIRGRPPRLPRPRPRPEHCPRP | 0.549 |
| RRIRGRPPRLPRPRPRPEIEPRP | 1.37 |
| RRIRGRPPRLPRPRPRPEMWPRP | 1.76 |
| RRIRGRPPRLPRPRPRPENSPRP | 0.678 |
| RRIRGRPPRLPRPRPRPEPAPRP | 1.69 |

| Sequence | shrunken log2 fold change |
| --- | --- |
| RRIRGRPPRLPRPRPRPERDPRP | 0.955 |
| RRIRGRPPRLPRPRPRPERGPRP | 1.72 |
| RRIRGRPPRLPRPRPRPERQPRP | 0.101 |
| RRIRGRPPRLPRPRPRPERVPRP | 0.397 |
| RRIRGRPPRLPRPRPRPEVWPRP | 1.58 |
| RRIRGRPPRLPRPRPRPEWKPRP | 1.3 |
| RRIRGRPPRLPRPRPRPEWLPRP | 1.5 |
| RRIRGRPPRLPRPRPRPFAEPRP | 2.46 |
| RRIRGRPPRLPRPRPRPFAFPRP | 0.531 |
| RRIRGRPPRLPRPRPRPFAKPRP | 0.479 |
| RRIRGRPPRLPRPRPRPFALPRP | 0.278 |
| RRIRGRPPRLPRPRPRPFCTPRP | 0.157 |
| RRIRGRPPRLPRPRPRPFFCPRP | 0.471 |
| RRIRGRPPRLPRPRPRPFGQPRP | 0.368 |
| RRIRGRPPRLPRPRPRPFHHPRP | -0.126 |
| RRIRGRPPRLPRPRPRPFHLPRP | -0.391 |
| RRIRGRPPRLPRPRPRPFIQPRP | -0.382 |
| RRIRGRPPRLPRPRPRPFIRPRP | -0.257 |
| RRIRGRPPRLPRPRPRPFKLPRP | -0.167 |
| RRIRGRPPRLPRPRPRPFLPPRP | -0.148 |
| RRIRGRPPRLPRPRPRPFMDPRP | -0.000933 |
| RRIRGRPPRLPRPRPRPFMWPRP | 0.211 |
| RRIRGRPPRLPRPRPRPFNQPRP | -0.28 |
| RRIRGRPPRLPRPRPRPFRNPRP | 0.0285 |
| RRIRGRPPRLPRPRPRPFRRPRP | 0.234 |
